Assay results taken from patent publication US20210115102.

Chain of Factor Xa, recombinant human (chain): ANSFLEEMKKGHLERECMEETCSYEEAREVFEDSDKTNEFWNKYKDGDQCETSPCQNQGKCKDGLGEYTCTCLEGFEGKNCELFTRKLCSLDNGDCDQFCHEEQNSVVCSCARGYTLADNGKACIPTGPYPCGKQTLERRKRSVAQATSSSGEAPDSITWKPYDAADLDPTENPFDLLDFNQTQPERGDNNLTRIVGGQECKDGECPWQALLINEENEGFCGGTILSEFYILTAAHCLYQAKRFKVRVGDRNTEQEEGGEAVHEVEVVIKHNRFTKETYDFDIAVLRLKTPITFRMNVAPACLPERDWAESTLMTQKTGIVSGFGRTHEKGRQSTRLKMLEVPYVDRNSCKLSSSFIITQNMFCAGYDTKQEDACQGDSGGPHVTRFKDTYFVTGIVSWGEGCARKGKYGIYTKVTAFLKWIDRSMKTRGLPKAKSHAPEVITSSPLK
Chain of Hepsin, recombinant human (chain, as listed by the source): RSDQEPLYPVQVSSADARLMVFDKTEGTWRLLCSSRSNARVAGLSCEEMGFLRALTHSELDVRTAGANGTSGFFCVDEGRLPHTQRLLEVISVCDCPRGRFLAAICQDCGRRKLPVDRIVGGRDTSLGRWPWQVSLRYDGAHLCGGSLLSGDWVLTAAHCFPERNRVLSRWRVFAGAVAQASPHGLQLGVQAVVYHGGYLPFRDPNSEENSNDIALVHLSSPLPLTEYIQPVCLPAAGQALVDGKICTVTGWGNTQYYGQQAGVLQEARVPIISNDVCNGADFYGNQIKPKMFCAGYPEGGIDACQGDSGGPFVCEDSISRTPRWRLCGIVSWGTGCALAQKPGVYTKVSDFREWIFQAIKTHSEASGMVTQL
Chain of ALU30-19 (chain, as listed by the source): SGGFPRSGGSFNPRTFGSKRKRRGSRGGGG
Chain of ALU30-18 (chain, as listed by the source): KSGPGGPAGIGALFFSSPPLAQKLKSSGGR
Chain of ALU30-8 (chain, as listed by the source): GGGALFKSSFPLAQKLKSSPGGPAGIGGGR
Chain of ALU30-15 (chain, as listed by the source): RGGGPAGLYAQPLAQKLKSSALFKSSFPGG
Chain of ALU30-14 (chain, as listed by the source): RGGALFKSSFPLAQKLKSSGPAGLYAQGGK
Chain of ALU30-12 (chain, as listed by the source): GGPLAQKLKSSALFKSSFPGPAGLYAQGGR
Chain of ALU30-9 (chain, as listed by the source): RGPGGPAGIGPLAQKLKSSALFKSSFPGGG
Chain of ALU30-17 (chain, as listed by the source): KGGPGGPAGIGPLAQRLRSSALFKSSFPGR
Chain of ALU30-13 (chain, as listed by the source): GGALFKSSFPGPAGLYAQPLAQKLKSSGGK
Chain of ALU30-7 (chain, as listed by the source): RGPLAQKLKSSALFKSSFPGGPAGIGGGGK
Chain of ALU30-6 (chain, as listed by the source): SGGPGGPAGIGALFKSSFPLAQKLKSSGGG
Chain of ALU30-5 (chain, as listed by the source): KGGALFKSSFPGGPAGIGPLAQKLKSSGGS
Chain of ALU30-10 (chain, as listed by the source): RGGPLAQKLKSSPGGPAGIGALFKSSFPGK
Chain of ALU30-11 (chain, as listed by the source): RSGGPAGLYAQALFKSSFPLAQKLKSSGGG
Chain of ALU30-1 (chain, as listed by the source): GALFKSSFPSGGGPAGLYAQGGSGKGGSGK
Chain of ALU30-16 (chain, as listed by the source): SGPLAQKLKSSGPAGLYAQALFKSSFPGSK

For Factor Xa, recombinant human, the “30-mer substrate degradation (MSP-MS)” value (ALU30-10) was “all other peptides bearing a CTSL1_1 motif were cleaved by Factor Xa at either ALF|KSSFP (SEQ ID NO: 198) or ALFKS|SFP (SEQ ID NO: 198)”, the “30-mer substrate degradation (MSP-MS)” value (ALU30-11) was “all other peptides bearing a CTSL1_1 motif were cleaved by Factor Xa at either ALF|KSSFP (SEQ ID NO: 198) or ALFKS|SFP (SEQ ID NO: 198)” and the “30-mer substrate degradation (MSP-MS)” value (ALU30-12) was “all other peptides bearing a CTSL1_1 motif were cleaved by Factor Xa at either ALF|KSSFP (SEQ ID NO: 198) or ALFKS|SFP (SEQ ID NO: 198)”. The “30-mer substrate degradation (MSP-MS)” value (ALU30-13) was “all other peptides bearing a CTSL1_1 motif were cleaved by Factor Xa at either ALF|KSSFP (SEQ ID NO: 198) or ALFKS|SFP (SEQ ID NO: 198)”, the “30-mer substrate degradation (MSP-MS)” value (ALU30-14) was “all other peptides bearing a CTSL1_1 motif were cleaved by Factor Xa at either ALF|KSSFP (SEQ ID NO: 198) or ALFKS|SFP (SEQ ID NO: 198)” and the “30-mer substrate degradation (MSP-MS)” value (ALU30-15) was “all other peptides bearing a CTSL1_1 motif were cleaved by Factor Xa at either ALF|KSSFP (SEQ ID NO: 198) or ALFKS|SFP (SEQ ID NO: 198)”. The “30-mer substrate degradation (MSP-MS)” value (ALU30-16) was “all other peptides bearing a CTSL1_1 motif were cleaved by Factor Xa at either ALF|KSSFP (SEQ ID NO: 198) or ALFKS|SFP (SEQ ID NO: 198)”, the “30-mer substrate degradation (MSP-MS)” value (ALU30-17) was “all other peptides bearing a CTSL1_1 motif were cleaved by Factor Xa at either ALF|KSSFP (SEQ ID NO: 198) or ALFKS|SFP (SEQ ID NO: 198)” and the “30-mer substrate degradation (MSP-MS)” value (ALU30-18) was “The peptide with the motif CTSL1_2 was cleaved at the lowest efficiency”. The “30-mer substrate degradation (MSP-MS)” value (ALU30-19) was “Peptide Alu30-19 with this motif was completely degraded before the 5 min time point”, the “30-mer substrate degradation (MSP-MS)” value (ALU30-1) was “all other peptides bearing a CTSL1_1 motif were cleaved by Factor Xa at either ALF|KSSFP (SEQ ID NO: 198) or ALFKS|SFP (SEQ ID NO: 198)” and the “30-mer substrate degradation (MSP-MS)” value (ALU30-5) was “the only library peptide with significant cleavage was Alu30-5, cleaved at the CTSL1_1 motif ALFKS|SFP (SEQ ID NO: 198), upstream of a FAPα_1 motif”. The “30-mer substrate degradation (MSP-MS)” value (ALU30-6) was “all other peptides bearing a CTSL1_1 motif were cleaved by Factor Xa at either ALF|KSSFP (SEQ ID NO: 198) or ALFKS|SFP (SEQ ID NO: 198)”, the “30-mer substrate degradation (MSP-MS)” value (ALU30-7) was “all other peptides bearing a CTSL1_1 motif were cleaved by Factor Xa at either ALF|KSSFP (SEQ ID NO: 198) or ALFKS|SFP (SEQ ID NO: 198)” and the “30-mer substrate degradation (MSP-MS)” value (ALU30-8) was “all other peptides bearing a CTSL1_1 motif were cleaved by Factor Xa at either ALF|KSSFP (SEQ ID NO: 198) or ALFKS|SFP (SEQ ID NO: 198)”. The “30-mer substrate degradation (MSP-MS)” value (ALU30-9) was “all other peptides bearing a CTSL1_1 motif were cleaved by Factor Xa at either ALF|KSSFP (SEQ ID NO: 198) or ALFKS|SFP (SEQ ID NO: 198)”.
In the case of Hepsin, recombinant human, the apparent catalytic efficiency (ALU30-12) is reported as “The authentic peptide Alu30-19, as well as the top cleaved peptides Alu30-8,-9, -12, and -14 all had apparent catalytic efficiencies on the same order of 10^5 M^-1s^-1”, the apparent catalytic efficiency (ALU30-14) is reported as “The authentic peptide Alu30-19, as well as the top cleaved peptides Alu30-8,-9, -12, and -14 all had apparent catalytic efficiencies on the same order of 10^5 M^-1s^-1” and the “cleavage efficiency of 30-mer library peptides” value (ALU30-15) is reported as “it had slightly higher hepsin susceptibility”. The “30-mer substrate degradation (MSP-MS)” value (ALU30-17) was “The ADAM17_1 motif was less efficiently cleaved than ADAM17_2”, the “30-mer substrate degradation (MSP-MS)” value (ALU30-18) was “the alternate CTSL1_2 motif was also cleaved at a much slower rate than CTSL1_1” and the “30-mer substrate degradation (MSP-MS)” value (ALU30-19) was “Alu30-19 was cleaved at all three motifs within the first 15 min of the reaction”. For the same substance, the apparent catalytic efficiency (ALU30-19) was “The authentic peptide Alu30-19, as well as the top cleaved peptides Alu30-8,-9, -12, and -14 all had apparent catalytic efficiencies on the same order of 10^5 M^-1s^-1”, the apparent catalytic efficiency (ALU30-8) was “The authentic peptide Alu30-19, as well as the top cleaved peptides Alu30-8,-9, -12, and -14 all had apparent catalytic efficiencies on the same order of 10^5 M^-1s^-1” and the apparent catalytic efficiency (ALU30-9) was “The authentic peptide Alu30-19, as well as the top cleaved peptides Alu30-8,-9, -12, and -14 all had apparent catalytic efficiencies on the same order of 10^5 M^-1s^-1”.
